Reference: paper PMC4930772
Values belong to the substance of their own block, whether it stands above or below them.

Target: PP2A B56γ1 30-380 (UniProt Q13362)
Assay: ITC
[1] = reference: wild type, sites T680
[2] = reference: wild type, sites S676
[3] = reference: wild type, sites S670

- KD (reference: wild type, sites S670,S676): same; reference 2.91 ± 0.50
Substance: BubR1 647-720 (from UniProt O60566) DDT (S670D/S676D)

- KD [1]: same; reference 2.91 ± 0.50
Substance: BubR1 647-720 (from UniProt O60566) SSD (T680D)

- KD (reference: B56γ1 wild type, sites S670): weaker; reference 0.25 ± 0.06
Substance: BubR1 667-681 (from UniProt O60566) B56γ1 R188A

- KD [2]: same; reference 2.91 ± 0.50
Substance: BubR1 647-720 (from UniProt O60566) S676A

- KD [1]: weaker; reference 2.91 ± 0.50
Substance: BubR1 647-720 (from UniProt O60566) AAAA (E678A/T680A/H681A)

- KD [2]: same; reference 2.91 ± 0.50
Substance: BubR1 647-720 (from UniProt O60566) SDT (S676D)

- KD (reference: wild type, sites S676,T680): same; reference 2.91 ± 0.50
Substance: BubR1 647-720 (from UniProt O60566) SDD (S676D/T680D)

- KD (reference: pS676 15-mer, sites T680): same; reference 0.69 ± 0.11
- KD (reference: unphosphorylated 15-mer, sites S676,T680): stronger; reference 2.80 ± 0.30
Substance: BubR1 667-681 (from UniProt O60566) pS676/pT680 15-mer

- KD (reference: unphosphorylated 15-mer, sites S676): stronger; reference 2.80 ± 0.30
Substance: BubR1 667-681 (from UniProt O60566) pS676 15-mer

- KD (reference: wild type, sites S670,T680): same; reference 2.91 ± 0.50
Substance: BubR1 647-720 (from UniProt O60566) DSD (S670D/T680D)

- KD [3]: same; reference 2.91 ± 0.50
Substance: BubR1 647-720 (from UniProt O60566) S670A

- KD (reference: wild type, sites S670,S676,T680): same; reference 2.91 ± 0.50
Substance: BubR1 647-720 (from UniProt O60566) 3D (S670D/S676D/T680D)

- KD (reference: unphosphorylated 15-mer, sites S670): stronger; reference 2.80 ± 0.30
Substance: BubR1 667-681 (from UniProt O60566) pS670 15-mer

- KD [3]: same; reference 2.91 ± 0.50
Substance: BubR1 647-720 (from UniProt O60566) DST (S670D)
